In data set [1] the target is SARS-CoV-2 nucleocapsid (N) protein, full length (419 amino acids) (SARS-CoV-2) (UniProt P0DTC9). The data set is described as follows: SEC-RALS.
Data set [2] addresses SARS-CoV-2 Nsp3 ubiquitin-like 1 (Ubl1) domain, residues 1-111 (SARS-CoV-2). Nature of the data set: crystal structure.
The test system of a further data set is Nsp3 NAB (SARS-CoV-2). Nature of the data set: EMSA. (A gel shift assay detects complexes by their altered migration in electrophoresis.)
The test system of a further data set is Nsp3 HSUD (SARS-CoV-2). The data set is described as follows: EMSA.
Data set [3] has as its system Nsp3 Y domain (SARS-CoV-2). Nature of the data set: EMSA.
Data set [4] concerns Nucleocapsid (N) protein (SARS-CoV-2). The data set is described as follows: EMSA.
Data set [5] has as its system Nsp3 Ubl1 (SARS-CoV-2 (MN908947.3?)). Nature of the data set: EMSA.
Another data set deals with Nsp3 ADRP (SARS-CoV-2). Nature of the data set: EMSA.
Data set [6] deals with Nsp3 Ubl1 (in N complex);N protein (in Ubl1 complex) (SARS-CoV-2;SARS-CoV-2). Nature of the data set: EMSA.

For “His6-Nsp3 Ubl1 domain (residues 1-111) (domain or fragment)”, the stoichiometry N (Ubl1 per N (4:4)) in [1] worked out at 1.

With “SARS-CoV-2 Nsp3 ubiquitin-like 1 (Ubl1) domain, residues 1-111 (domain or fragment)”, the stoichiometry N (in general, a count of units in the complex or per binding partner) in data set [2] was 2.

Take 5' UTR (1-245): the Kd – broadly, the concentration at which binding is half-saturated – amounted to 204 µM in the data set on Nsp3 NAB (SARS-CoV-2); 41 µM in the data set with Nsp3 HSUD (SARS-CoV-2); 0.7 µM in [3]; 0.79 µM in [4]; 31 µM in [5]; 198 µM with Nsp3 ADRP (SARS-CoV-2). In data set [6], this substance came in with a Kd of 0.007 µM.

The values are drawn from paper PMC12323374.
